Experimental data published in publication PMC9960230.

Key:
Conditions in all cases: domain or fragment
[1] = molecular target: Recombinant human FcRn conjugated with biotin (human) (UniProt P55899); test: SPR; heme-ox-exposed Fc, pH 5.4
[2] = molecular target: Recombinant human FcRn conjugated with biotin (human) (UniProt P55899); test: SPR; heme (Fe3+)-exposed Fc, pH 5.4
[3] = molecular target: Recombinant human FcRn conjugated with biotin (human) (UniProt P55899); test: SPR; native Fc, pH 5.4

Recombinant human FcRn conjugated with biotin (human), sequence (P55899 24-297): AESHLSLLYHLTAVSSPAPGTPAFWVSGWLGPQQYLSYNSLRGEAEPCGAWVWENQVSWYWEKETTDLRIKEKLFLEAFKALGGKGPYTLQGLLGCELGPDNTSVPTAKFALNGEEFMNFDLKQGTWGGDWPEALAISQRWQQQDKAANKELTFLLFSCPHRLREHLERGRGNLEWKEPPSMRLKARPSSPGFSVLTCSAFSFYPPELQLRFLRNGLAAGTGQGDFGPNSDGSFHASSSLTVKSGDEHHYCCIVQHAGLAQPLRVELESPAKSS

For “Fc-γ fragments obtained by papain digestion of polyclonal human IgG”, the Kd [1] was 8 nM, the koff [1] was 0.00367 s⁻¹ and the Kd [2] was 7.7 nM. It also gave a koff [2] of 0.004 s⁻¹, a Kd [3] of 9.1 nM and a koff [3] of 0.00415 s⁻¹.
